Test results from PMC9817130, “Structural insights into broadly neutralizing antibodies elicited by hybrid immunity against SARS-CoV-2” (Emerging Microbes & Infections, 2023).

Biological target: T1, SARS-CoV-2 WT RBD protein (Sino Biological) (SARS-CoV-2 WT, UniProt P0DTC2)
T1 construct: also called viral RBD; immobilized RBD
Test: SPR
Settings: both partners purified

B1: LY-CoV1404 (Bebtelovimab) (antibody, V domains shown)
VH: QITLKESGPTLVKPTQTLTLTCTFSGFSLSISGVGVGWLRQPPGKALEWLALIYWDDDKRYSPSLKSRLTISKDTSKNQVVLKMTNIDPVDTATYYCAHHSISTIFDHWGQGTLVTVSS
VL: QSALTQPASVSGSPGQSITISCTATSSDVGDYNYVSWYQQHPGKAPKLMIFEVSDRPSGISNRFSGSKSGNTASLTISGLQAEDEADYYCSSYTTSSAVFGGGTKLTVL
notes: also called class III LY-CoV1404
binding result: binds
